T1: semaphorin 3A (UniProt Q14563 21-771, limits assumed)
T1 construct: also called Sema3A; Sema3A ligand
T1 sequence (looked up): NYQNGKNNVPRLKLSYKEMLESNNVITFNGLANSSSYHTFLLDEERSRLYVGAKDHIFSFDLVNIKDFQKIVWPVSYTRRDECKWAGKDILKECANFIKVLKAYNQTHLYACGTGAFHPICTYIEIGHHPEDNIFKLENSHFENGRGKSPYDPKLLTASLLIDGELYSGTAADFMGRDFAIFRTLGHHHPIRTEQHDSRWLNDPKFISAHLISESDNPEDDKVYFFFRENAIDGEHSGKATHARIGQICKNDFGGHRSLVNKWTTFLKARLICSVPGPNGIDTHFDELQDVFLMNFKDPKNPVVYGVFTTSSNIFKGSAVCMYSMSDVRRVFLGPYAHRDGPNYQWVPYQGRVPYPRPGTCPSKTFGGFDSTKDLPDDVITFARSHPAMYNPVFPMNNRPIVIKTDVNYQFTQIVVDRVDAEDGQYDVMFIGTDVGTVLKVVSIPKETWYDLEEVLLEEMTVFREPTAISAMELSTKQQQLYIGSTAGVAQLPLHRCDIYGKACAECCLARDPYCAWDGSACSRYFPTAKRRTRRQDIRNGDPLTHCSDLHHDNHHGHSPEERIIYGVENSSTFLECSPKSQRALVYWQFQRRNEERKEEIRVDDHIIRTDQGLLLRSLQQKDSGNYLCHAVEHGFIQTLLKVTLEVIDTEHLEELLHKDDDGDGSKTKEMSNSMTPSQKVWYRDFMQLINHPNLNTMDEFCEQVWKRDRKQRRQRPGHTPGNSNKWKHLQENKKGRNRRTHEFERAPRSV

B1: neuropilin 1 receptor (receptor, UniProt O14786 273-586, looked up)
chain: FKCMEALGMESGEIHSDQITASSQYSTNWSAERSRLNYPENGWTPGEDSYREWIQVDLGLLRFVTAVGTQGAISKETKKKYYVKTYKIDVSSNGEDWITIKEGNKPVLFQGNTNPTDVVVAVFPKPLITRFVRIKPATWETGISMRFEVYGCKITDYPCSGMLGMVSGLISDSQITSSNQGDRNWMPENIRLVTSRSGWALPPAPHSYINEWLQIDLGEEKIVRGIIIQGGKHRENKVFMRKFKIGYSNNGSDWKMIMDDSKRKAKSFEGNNNYDTPELRTFPALSTRFIRIYPERATHGGLGLRMELLGCEVE
notes: The construct is not defined; The same entry is used for the SPR and ELISA experiments; also called NRP1; NRP 1
B2: VEGF165 (ligand, UniProt P15692-4 27-191, looked up)
chain: APMAEGGGQNHHEVVKFMDVYQRSYCHPIETLVDIFQEYPDEIEYIFKPSCVPLMRCGGCCNDEGLECVPTEESNITMQIMRIKPHQGQHIGEMSFLQHNKCECRPKKDRARQENPCGPCSERRKHLFVQDPQTCKCSCKNTDSRCKARQLELNERTCRCDKPRR

Legend:
semaphorin 3A = biological target: T1, semaphorin 3A; assay: SPR (Biacore 2000), neuropilin 1 domain fixed on CM5 chip, semaphorin 3A as analyte 1 uM to 62.5 nM
Method: (§1) First, the affinity to a neuropilin receptor was performed on neuropilin 1 (NRP 1). Specifically, surface plasmon resonance (SPR) was performed using Biacore 2000 (GE Healthcare) in order to investigate the binding ability of TPP to the neuropilin 1 domain. Specifically, each neuropilin 1 domain was diluted in 10 mM Na-acetate buffer (pH 4.0), and fixed on CMS sensor chip (GE Healthcare, USA) at about 1,000 response units (RU). […] After the association/dissociation analysis, the CMS chip was regenerated by allowing buffer (20mM NaOH, 1M NaCl, pH 10.0) to flow at a flow rate of 30 μl/min for 1 minute.

neuropilin 1 receptor = biological target: B1; assay: SPR (Biacore 2000), neuropilin 1 domain fixed on CM5 chip, VEGF165 as analyte 80 nM to 5 nM
Method: as §1

Kd (semaphorin 3A)	Kd (neuropilin 1 receptor)	Binder
0.0279 µM	–	B1
–	0.00351 µM	B2

Reference: patent US20180133288A1 (ILDONG PHARM, published 2018)
